Results published in patent US20240254223A1 (NOVIMMUNE, published 2024).

T1: low-moderate affinity dimeric IL-2R (IL-2Rβ and IL-2Rγ) on HEK-Blue CD122/CD132 cells (UniProt P14784 27-551; P31785 23-369, limits assumed)
T1 sequence (looked up) 1: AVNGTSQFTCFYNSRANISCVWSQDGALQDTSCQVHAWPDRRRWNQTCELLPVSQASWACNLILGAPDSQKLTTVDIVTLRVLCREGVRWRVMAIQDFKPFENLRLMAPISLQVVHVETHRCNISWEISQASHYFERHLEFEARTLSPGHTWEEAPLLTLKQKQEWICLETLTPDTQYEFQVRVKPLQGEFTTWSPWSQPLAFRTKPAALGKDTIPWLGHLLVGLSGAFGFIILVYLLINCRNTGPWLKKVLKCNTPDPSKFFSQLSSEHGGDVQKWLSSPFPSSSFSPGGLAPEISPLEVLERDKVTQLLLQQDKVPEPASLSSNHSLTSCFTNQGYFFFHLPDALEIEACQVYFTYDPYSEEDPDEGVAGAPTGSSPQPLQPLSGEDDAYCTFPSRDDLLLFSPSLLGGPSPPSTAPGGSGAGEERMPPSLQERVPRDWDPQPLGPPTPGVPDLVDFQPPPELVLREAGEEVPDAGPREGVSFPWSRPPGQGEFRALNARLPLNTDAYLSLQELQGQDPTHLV
T1 sequence (looked up) 2: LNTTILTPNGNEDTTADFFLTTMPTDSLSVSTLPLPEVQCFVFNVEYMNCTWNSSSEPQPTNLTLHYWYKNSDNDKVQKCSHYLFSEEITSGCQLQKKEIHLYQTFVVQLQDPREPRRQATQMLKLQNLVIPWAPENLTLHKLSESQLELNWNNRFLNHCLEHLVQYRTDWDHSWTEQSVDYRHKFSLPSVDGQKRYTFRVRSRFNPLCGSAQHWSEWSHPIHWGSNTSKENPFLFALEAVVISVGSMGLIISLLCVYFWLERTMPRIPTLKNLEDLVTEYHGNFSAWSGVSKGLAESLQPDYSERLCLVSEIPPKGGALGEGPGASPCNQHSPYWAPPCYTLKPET

T2: high affinity trimeric IL-2R (IL-2Rα, IL-2Rβ and IL-2Rγ) on HEK-Blue IL-2 cells (UniProt P01589 22-272; P14784 27-551; P31785 23-369)
T2 sequence (looked up) 1: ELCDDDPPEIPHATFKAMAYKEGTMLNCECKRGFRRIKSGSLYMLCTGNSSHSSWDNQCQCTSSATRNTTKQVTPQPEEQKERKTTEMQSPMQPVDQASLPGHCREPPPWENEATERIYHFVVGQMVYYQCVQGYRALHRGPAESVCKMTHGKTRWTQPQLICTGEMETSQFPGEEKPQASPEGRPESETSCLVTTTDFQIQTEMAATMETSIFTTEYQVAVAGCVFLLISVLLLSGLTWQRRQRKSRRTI
T2 sequence (looked up) 2: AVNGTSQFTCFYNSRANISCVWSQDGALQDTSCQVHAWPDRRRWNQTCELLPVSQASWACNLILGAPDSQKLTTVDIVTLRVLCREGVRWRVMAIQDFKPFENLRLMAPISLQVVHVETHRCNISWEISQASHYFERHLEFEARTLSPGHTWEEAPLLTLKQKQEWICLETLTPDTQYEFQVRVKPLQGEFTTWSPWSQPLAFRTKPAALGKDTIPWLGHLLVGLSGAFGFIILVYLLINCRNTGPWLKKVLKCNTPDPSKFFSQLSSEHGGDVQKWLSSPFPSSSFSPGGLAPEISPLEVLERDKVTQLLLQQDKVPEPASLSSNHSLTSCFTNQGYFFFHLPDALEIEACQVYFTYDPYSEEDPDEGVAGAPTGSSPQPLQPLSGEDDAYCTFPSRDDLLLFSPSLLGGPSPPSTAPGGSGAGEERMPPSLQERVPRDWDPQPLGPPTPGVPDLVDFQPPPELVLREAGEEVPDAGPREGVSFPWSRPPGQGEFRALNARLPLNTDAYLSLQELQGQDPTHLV
T2 sequence (looked up) 3: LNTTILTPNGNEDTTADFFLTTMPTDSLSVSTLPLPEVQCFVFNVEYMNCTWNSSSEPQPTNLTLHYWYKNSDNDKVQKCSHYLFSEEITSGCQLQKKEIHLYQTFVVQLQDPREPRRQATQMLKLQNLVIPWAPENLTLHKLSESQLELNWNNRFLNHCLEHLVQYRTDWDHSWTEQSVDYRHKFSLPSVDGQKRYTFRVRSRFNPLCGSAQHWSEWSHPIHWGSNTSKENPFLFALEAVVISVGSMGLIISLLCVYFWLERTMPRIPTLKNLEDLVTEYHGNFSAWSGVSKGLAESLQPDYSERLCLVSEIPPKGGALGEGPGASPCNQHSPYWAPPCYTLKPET


Key:
[1] = target: T1, low-moderate affinity dimeric IL-2R …; assay: cell-based or functional assay
[2] = target: T2, high affinity trimeric IL-2R (IL-2Rα, …); assay: cell-based or functional assay
[3] = target: T3, CD47 at the surface of Peak cells (human, UniProt Q08722 19-323); assay: flow cytometry, Peak cells, after MMP-9 treatment
T3 construct: whole, on cells; also called cell surface CD47
Protocol: Binding activity of antibody-cytokine/receptor fusions before and after cleavage was also evaluated by flow cytometry. Peak cells derived from HEK 293 which are human cells expressing CD47 were used to evaluate masking efficacy and binding recovery to CD47 by flow cytometry. Peak cells were diluted in cold FACS buffer (PBS, 2% BSA) to 1.2×10⁶ cells/mL. 3×10⁵ cells/well were added in a 96 well V-bottom plate. The plate was then centrifugated for 5 min at 1300 rpm, 4° C. Supernatants were removed and cells were washed twice using FACS buffer. A serial dilution of antibody-cytokine/receptor fusions previously digested with MMP-9 or not digested as described above was prepared in FACS buffer. An irrelevant antibody was included. Then, 150 μL of each diluted antibody were added in corresponding well and incubated for 30 min at 4° C. Cells were washed twice with FACS buffer and 100 μL of a mouse anti human Fc-PE conjugated secondary antibody were added and the plate was incubated for 20 min at 4° C. Cells were then washed twice with FACS buffer. Finally, 150 μL of SYTOX blue dead cell stain (ThermoFisher) diluted to 1/5000 in FACS buffer were added before detection by flow cytometry with Cytoflex (Beckman Coulter). Acquisition was performed with 10000 events for each well. Data were analyzed by FlowJo software.

[4] = target: T4, His-tagged human CD47 (human, UniProt Q08722 19-139, limits assumed); assay: BLI, His-CD47 on HIS1K sensor, after MMP-9 treatment
T4 construct: loaded on HIS1K biosensors at 2.5 µg/mL; also called target antigen; not shown: His tag
Protocol: The capacity of the masking domains to inhibit binding activity of the antibody was evaluated by Bio-Layer Interferometry (BLI). […] Binding experiments were performed to evaluate the masking efficiency and the binding recovery after cleavage of the masking domains. BLI was performed on an Octet RED96 system (Sartorius). His-tagged human CD47 was diluted at 2.5 μg/mL in Kinetic Buffer (KB) (Sartorius) and loaded on HIS1K biosensors (anti-His tag antibody biosensors, Sartorius) for 300 seconds. Loaded biosensors were dipped into antibodies diluted at 15 μg/mL in KB for 300 seconds to monitor association. Then, biosensors were transferred in KB for dissociation for 60 seconds. Binding profiles were then analyzed with ForteBio Data Analysis software.

Row | EC50 after cleavage IL-2, HEK Blue IL-2 βγ reporter assay [1] [nM] | EC50 after cleavage IL-2, HEK Blue IL-2 αβγ reporter assay [2] [nM] | EC50 [3] [nM] | Binding after cleavage (BLI) [4] [nm] | Binder
1 | 0.03 | 0.07 | 0.4 |  | Construct No 690 after cleavage by MMP-9 (antibody, MMP-9 digest of m24; the sample also holds the released IL-2Rα and IL-2; also called n690 after cleavage; not shown: remnant of CM1 and linker after MMP-9 cleavage) light: DIQMTQSPSSLSASVGDRVTITCNVDQVIANWLNWYQQKPGKAPKLLIYAASSLQSGVPSRFSGSGSGTDFTLTISSLQPEDFATYYCQQMHPRAPKQFGQGTKVEIKRTVAAPSVFIFPPSDEQLKSGTASVVCLLNNFYPREAKVQWKVDNALQSGNSQESVTEQDSKDSTYSLSSTLTLSKADYEKHKVYACEVTHQGLSSPVTKSFNRGEC heavy: not shown
2 |  | 0.02 | 0.8 |  | Construct No 500 after cleavage by MMP-9 (antibody, MMP-9 digest of m21; the sample also holds the released IL-2, IL-2Rβ and IL-2Rα; also called n500 after cleavage; not shown: remnant of CM1 and linker after MMP-9 cleavage) light: DIQMTQSPSSLSASVGDRVTITCNVDQVIANWLNWYQQKPGKAPKLLIYAASSLQSGVPSRFSGSGSGTDFTLTISSLQPEDFATYYCQQMHPRAPKQFGQGTKVEIKRTVAAPSVFIFPPSDEQLKSGTASVVCLLNNFYPREAKVQWKVDNALQSGNSQESVTEQDSKDSTYSLSSTLTLSKADYEKHKVYACEVTHQGLSSPVTKSFNRGEC heavy: not shown
3 |  | 0.01 | 0.4 |  | Construct No 450 after cleavage by MMP-9 (antibody, MMP-9 digest of m16; the sample also holds the released IL-2, IL-2Rα and IL-2Rβ; also called n450 after cleavage; not shown: remnant of CM1 and linker after MMP-9 cleavage) light: DIQMTQSPSSLSASVGDRVTITCNVDQVIANWLNWYQQKPGKAPKLLIYAASSLQSGVPSRFSGSGSGTDFTLTISSLQPEDFATYYCQQMHPRAPKQFGQGTKVEIKRTVAAPSVFIFPPSDEQLKSGTASVVCLLNNFYPREAKVQWKVDNALQSGNSQESVTEQDSKDSTYSLSSTLTLSKADYEKHKVYACEVTHQGLSSPVTKSFNRGEC heavy: not shown
4 |  | 0.23 | 0.8 | 1.3 | Construct No 1030 after cleavage by MMP-9 (antibody, MMP-9 digest of m37; the sample also holds the released IL-2 Q126T and IL-2Rα; also called n1030 after cleavage; not shown: remnant of CM1 and linker after MMP-9 cleavage) light: DIQMTQSPSSLSASVGDRVTITCNVDQVIANWLNWYQQKPGKAPKLLIYAASSLQSGVPSRFSGSGSGTDFTLTISSLQPEDFATYYCQQMHPRAPKQFGQGTKVEIKRTVAAPSVFIFPPSDEQLKSGTASVVCLLNNFYPREAKVQWKVDNALQSGNSQESVTEQDSKDSTYSLSSTLTLSKADYEKHKVYACEVTHQGLSSPVTKSFNRGEC heavy: not shown
5 |  | 0.01 | 0.9 |  | Construct No 281 after cleavage by MMP-9 (antibody, MMP-9 digest of m13; the sample also holds the released IL-2; also called n281 after cleavage; not shown: remnant of CM1 and linker after MMP-9 cleavage) light: DIQMTQSPSSLSASVGDRVTITCNVDQVIANWLNWYQQKPGKAPKLLIYAASSLQSGVPSRFSGSGSGTDFTLTISSLQPEDFATYYCQQMHPRAPKQFGQGTKVEIKRTVAAPSVFIFPPSDEQLKSGTASVVCLLNNFYPREAKVQWKVDNALQSGNSQESVTEQDSKDSTYSLSSTLTLSKADYEKHKVYACEVTHQGLSSPVTKSFNRGEC heavy: not shown
6 |  | 0.01 | 0.3 |  | Construct No 471 after cleavage by MMP-9 (antibody, MMP-9 digest of m17; the sample also holds the released IL-2, IL-2Rα and IL-2Rβ; also called n471 after cleavage; not shown: remnant of CM1 and linker after MMP-9 cleavage) light: DIQMTQSPSSLSASVGDRVTITCNVDQVIANWLNWYQQKPGKAPKLLIYAASSLQSGVPSRFSGSGSGTDFTLTISSLQPEDFATYYCQQMHPRAPKQFGQGTKVEIKRTVAAPSVFIFPPSDEQLKSGTASVVCLLNNFYPREAKVQWKVDNALQSGNSQESVTEQDSKDSTYSLSSTLTLSKADYEKHKVYACEVTHQGLSSPVTKSFNRGEC heavy: not shown
